Data reported in article PMC9491610.

B1: Stu2-HA (wild-type Stu2, 3xHA tagged) [S. cerevisiae] / γ-tubulin (Tub4) [S. cerevisiae (endogenous in yeast extract)] (parent)
chain 1: MSGEEEVDYTTLPLEERLTYKLWKARLEAYKELNQLFRNSVGDISRDDNIQIYWRDPTLFAQYITDSNVVAQEQAIVALNSLIDAFASSSLKNAHNITLISTWTPLLVEKGLTSSRATTKTQSMSCILSLCGLDTSITQSVELVIPFFEKKLPKLIAAAANCVYELMAAFGLTNVNVQTFLPELLKHVPQLAGHGDRNVRSQTMNLIVEIYKVTGNNSDLLEEILFKKLKPIQVKDLHKLFAKVGDEPSSSKMLFEWEKRELEKKRSQEEEARKRKSILSNDEGEYQIDKDGDTLMGMETDMPPSKQQSGVQIDTFSMLPEETILDKLPKDFQERITSSKWKDRVEALEEFWDSVLSQTKKLKSTSQNYSNLLGIYGHIIQKDANIQAVALAAQSVELICDKLKTPGFSKDYVSLVFTPLLDRTKEKKPSVIEAIRKALLTICKYYDPLASSGRNEDMLKDILEHMKHKTPQIRMECTQLFNASMKEEKDGYSTLQRYLKDEVVPIVIQIVNDTQPAIRTIGFESFAILIKIFGMNTFVKTLEHLDNLKRKKIEETVKTLPNFSIASGSTHSTIETNKQTGPMENKFLLKKSSVLPSKRVASSPLRNDNKSKVNPIGSVASASKPSMVAANNKSRVLLTSKSLATPKNVVANSTDKNEKLIEEYKYRLQKLQNDEMIWTKERQSLLEKMNNTENYKIEMIKENEMLREQLKEAQSKLNEKNIQLRSKEIDVNKLSDRVLSLENELRNMEIELDRNKKRNDTNLQSMGTISSYSIPSSTVSSNYGVKSLSSALPFKEEEDVRRKEDVNYERRSSESIGDLPHRVNSLNIRPYRKNGTGVSSVSDDLDIDFNDSFASEESYKRAAAVTSTLKARIEKMKAKSRREGTTRT
chain 2: MGGEIITLQAGQCGNHVGKFLWSQLAKEHAIGTDGLSQLPDSSTERDDDTKPFFRENSRNKFTPRAIMMDSEPSVIADVENTFRGFFDPRNTWVASDGASAGNSWANGYDIGTRNQDDILNKIDKEIDSTDNFEGFQLLHSVAGGTGSGLGSNLLEALCDRYPKKILTTYSVFPARSSEVVVQSYNTILALRRLIEDSDATVVFDNASLLNISGKVFRNPNIDLQHTNQLISTIISSVTNSIRFPSYMYSSMSSIYSTLIPSPELHFLSPSFTPFTSDYIHDDIAHKGHSSYDVMLDLLDPSNSLVSTAMNNPTYFNVYNTIIGNVEPRQISRAMTKLQQRIKFPSWSSSAMHVNIGRRSPYLPLQPNENEVSGMMLSNMSTVVNVFENACNTFDKVFAKGAFLNNYNVGDLFQSMQNVQDEFAESREVVQSLMEDYVAAEQDSYLDDVLVDDENMVGELEEDLDADGDHKLV

Variants of: B1
Test: co-immunoprecipitation, western blot densitometry
Details: with γ-tubulin (Tub4) [S. cerevisiae (endogenous in yeast extract)], PBS buffer, three biological replicates, read off a plot; for screen value: parent: 0; for ratio to parent: parent: 1

Variant | screen value | ratio to parent
chain 1 K252Q K469Q K870Q | 1.8 | 5.5
chain 1 K252Q | 1.8 | 7
chain 1 K252R | -0.05 | 1.2
chain 1 K252Q K469Q | 1 | 2.5
chain 1 K252R K469R | -0.5 | 0.7

Second part, the variant after the results:

screen value | ratio to parent | Variant
-0.6 | 0.9 | chain 1 K870Q
0.1 | 1.5 | chain 1 K870R
-3 |  | chain 1 K252R K469R K870R
1.5 | 4 | chain 1 K469Q
0.75 | 2.2 | chain 1 K469R
